The values below come from patent US20250064983A1, “COMPOSITIONS AND METHODS FOR TREATING A CARDIAC DISEASE” (The Children's Medical Center Corporation, priority 2022, published 2025).

The target in one data set is CaMKIIδ (Homo sapiens, UniProt Q13557). Kind of data set: in vitro inhibition of CaMKIIδ, bioluminescent ADP monitoring assay (ADP-GLO). It counts as biochemical. As to conditions: purified polypeptides. As to the method: FIG. 4 provides a schematic illustrating the design of an in vitro experiment to evaluate the impact of the purified polypeptides described in FIG. 2D and shown in the left portion of FIG. 4 on CaMKIIδ (an isomer of CaMKII) activity. Activity of CaMKIIδ was measured using a bioluminescent and homogeneous ADP monitoring assay for kinases (ADP-GLO™), which is described in Zegzouti, et al. “ADP-Glo: A Bioluminescent and Homogeneous ADP Monitoring Assay for Kinases,” ASSAY and Drug Development Technologies, December 2009, 560-572, doi.org/10.1089/adt.2009.0222, the disclosure of which is incorporated herein by reference in its entirety for all purposes.
Inhibition of CaMKIIδ activity by the polypeptides was evaluated using a bioluminescent and homogeneous ADP monitoring assay for kinases (ADP-GLO™), which is described in Zegzouti, et al. “ADP-Glo: A Bioluminescent and Homogeneous ADP Monitoring Assay for Kinases,” ASSAY and Drug Development Technologies, December 2009, 560-572, doi.org/10.1089/adt.2009.0222, the disclosure of which is incorporated herein by reference in its entirety for all purposes (FIG. 4).

A further data set concerns LKB1 knockout mice. Kind of data set: Example 5: beat-to-beat variability (EKG) in LKB1 knockout mice (AF model). It is filed as in vivo, mouse. From the text:
Two different atrial fibrillation (AF) mouse models were used to test the efficacy of AIP×5 at treating AF of different origins. The two different AF mouse models were liver kinase B1 (LKB1) knock out mice and T-box transcription factor 5 (Tbx5) knock out mice.
LKB1-floxed or Tbx5-floxed mice were used to test the efficacy of AIP×5. AAV-NPPA-Cre was then used to conditionally knock out LKB1 or Tbx5 from the atria of the mice. NPPA is an atria specific promoter, ensuring that Cre recombinase directed knockout of LKB1 or Tbx5 was restricted to the atria. AAV-NPPA-FP (fluorescent protein) was used as a control virus. AAV-NPPA-FP has no Cre, and therefore the gene of interest is not knocked out. Uninjected mice were also included as a control to account for any effects caused by AAV injections. AAV-cTnT-AIP×5 or AAV-cTnT-CN19o were both tested as potential therapies to AF.
In short, P3 LKB1-floxed or Tbx5-floxed mice were injected (or not injected in the uninjected controls), and then EKG measurements of the mice were taken every two weeks starting at P14. At 12 weeks, the mice were sacrificed, and the sacrificed mice were tested for protein expression.
AF was calculated using the standard deviation of the beat-to-beat timing differences. A high beat-to-beat variability when sedated was indicative of atrial misfiring.
Statistical significance in the tests illustrated in FIGS. 10 and 11 was conducted using a 2-way Anova with post-hoc Dunnett's multiple comparisons to control (FP) group.

The subject of another data set is CaMKII. As to conditions: FIG. 2A, in vitro system of the cited papers; cited from earlier work.
The target of another data set is CaMKIIδ, Q13557. Kind of data set: cell-based or functional assay.
The target of a further data set is T1, AIPx5 multimer.
T1 chain: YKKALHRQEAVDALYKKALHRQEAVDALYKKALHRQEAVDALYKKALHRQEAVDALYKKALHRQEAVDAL

Data set [1] deals with T2, autocamtide-2-related inhibitory peptide (AIP).
T2 chain: YKKALHRQEAVDAL

As a reminder, the EC50 is the concentration that produces a half-maximal response. Read a high EC50 as a need for much substance.

Entries after “also recorded” stand apart in the source; their conditions may differ. Where no end group is shown, it is not given here.

Sequence of CaMKIIδ (Q13557 1-478): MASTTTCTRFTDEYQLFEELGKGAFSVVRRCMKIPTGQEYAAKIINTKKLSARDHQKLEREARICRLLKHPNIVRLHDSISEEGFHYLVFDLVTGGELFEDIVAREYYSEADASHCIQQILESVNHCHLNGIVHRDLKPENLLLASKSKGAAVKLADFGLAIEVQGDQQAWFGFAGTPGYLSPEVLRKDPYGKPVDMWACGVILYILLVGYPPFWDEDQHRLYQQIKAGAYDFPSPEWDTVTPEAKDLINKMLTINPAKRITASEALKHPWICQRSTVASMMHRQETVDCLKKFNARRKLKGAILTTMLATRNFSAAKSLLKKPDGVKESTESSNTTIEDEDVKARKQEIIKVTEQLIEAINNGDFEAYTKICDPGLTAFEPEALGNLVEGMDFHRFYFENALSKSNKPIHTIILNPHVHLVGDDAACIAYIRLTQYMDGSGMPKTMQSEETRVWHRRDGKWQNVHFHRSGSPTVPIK
Sequence of CaMKIIδ, Q13557 (Q13557 whole entry, stated change not applied): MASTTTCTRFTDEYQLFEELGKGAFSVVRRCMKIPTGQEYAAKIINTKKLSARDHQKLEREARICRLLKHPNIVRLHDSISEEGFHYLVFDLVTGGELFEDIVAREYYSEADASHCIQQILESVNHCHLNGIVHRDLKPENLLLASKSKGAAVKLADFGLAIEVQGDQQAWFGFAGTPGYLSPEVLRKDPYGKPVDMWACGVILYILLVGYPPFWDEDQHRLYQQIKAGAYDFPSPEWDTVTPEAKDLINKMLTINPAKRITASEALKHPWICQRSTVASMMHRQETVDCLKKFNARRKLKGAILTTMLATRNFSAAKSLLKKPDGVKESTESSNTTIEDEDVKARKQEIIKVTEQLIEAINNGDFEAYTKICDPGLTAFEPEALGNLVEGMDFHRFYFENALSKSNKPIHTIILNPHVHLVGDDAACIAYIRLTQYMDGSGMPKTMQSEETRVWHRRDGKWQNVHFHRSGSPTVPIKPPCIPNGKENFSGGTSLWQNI

For “KRAPKLGQIGRQKAVDIED [CN19o, reference compound]”, at CaMKIIδ, the EC50 came to 1.6 nM. Also, the “beat-to-beat variability compared to LKB1 knockout mice alone” value in the data set on LKB1 knockout mice is listed as “performed worse in measures of beat-to-beat variability than LKB1 knockout mice alone”. In addition, the “suppression of beat-to-beat variability” value in the data set with LKB1 knockout mice (AAV-cTnT vector, FIG. 10) was “did not suppress beat-to-beat variability”. Also, the “IC50 / potency of CaMKII inhibition compared with AIP” value in the data set with CaMKII was “lower IC50 than AIP; also recorded: more potent inhibitor of CaMKII than AIP”.

For “YKKALHRQEAVDALYKKALHRQEAVDALYKKALHRQEAVDAL [AIP×3]”, the response on CaMKIIδ was half-maximal at 543 nM (EC50).

The molecule “KRAPKLGQIGRQKAVDIEDKRAPKLGQIGRQKAVDIEDKRAPKLGQIGRQKAVDIED [CN19oX3]” registered an EC50 at CaMKIIδ of 2.1 nM.

B1: AIPx5 multimer (peptide)
peptide: YKKALHRQEAVDALYKKALHRQEAVDALYKKALHRQEAVDALYKKALHRQEAVDALYKKALHRQEAVDAL
With B1, the EC50 (inhibition of CaMKIIδ activity, ADP-GLO bioluminescent ADP monitoring assay) with CaMKIIδ, Q13557 was found to be 114 nM.

For the molecule KRAPKLGQIGRQKAVDIED [CN19o], the EC50 (inhibition of CaMKIIδ activity, ADP-GLO bioluminescent ADP monitoring assay) in the data set with CaMKIIδ, Q13557 is 1.6 nM.

The molecule YKKALHRQEAVDAL [autocamtide-2-related inhibitory peptide (AIP)] yielded an EC50 (inhibition of CaMKIIδ activity, ADP-GLO bioluminescent ADP monitoring assay) with CaMKIIδ, Q13557 of 6150 nM.

B2: CN19oX3 multimer (peptide)
peptide: KRAPKLGQIGRQKAVDIEDKRAPKLGQIGRQKAVDIEDKRAPKLGQIGRQKAVDIED
In the data set with CaMKIIδ, Q13557, B2 had an EC50 (inhibition of CaMKIIδ activity, ADP-GLO bioluminescent ADP monitoring assay) of 2.1 nM.

B3: CaMKII (endogenous, mouse heart) (protein)
chain: MATTATCTRFTDDYQLFEELGKGAFSVVRRCVKKTSTQEYAAKIINTKKLSARDHQKLEREARICRLLKHPNIVRLHDSISEEGFHYLVFDLVTGGELFEDIVAREYYSEADASHCIHQILESVNHIHQHDIVHRDLKPENLLLASKCKGAAVKLADFGLAIEVQGEQQAWFGFAGTPGYLSPEVLRKDPYGKPVDIWACGVILYILLVGYPPFWDEDQHKLYQQIKAGAYDFPSPEWDTVTPEAKNLINQMLTINPAKRITADQALKHPWQRSTVASMMHRQETVECLRKFNARRKLKGAILTTMLVSRNFSAAKSLLNKKSDGGVKKRKSSSSVHLMPQSNNKNSLVSPAQEPAPLQTAMEPQTTVVHNATDGIKGSTESCNTTTEDEDLKAAPLRTGNGSLVPEGRSPRDRTAPSAGMQPQPSLCSSAMRKQEIIKITEQLIEAINNGDFEAYTKICDPGLTSFEPEALGNLVEGMDFHKFYFENLLSKNSKPIHTTILNPHVHVIGEDAACIAYIRLTQYIDGQGRPRTSQSEETRVWHRRDGKWLNVHYHCSGAPAAPLQ
As for B3, the “phosphorylation of phospholamban (PLB) at threonine-17 in heart tissue exposed to isoproterenol (capillary Western, pPLB/PLB)” value (with AIPx5 multimer; in data set [1]) was “contacting cells with AIP or AIP×5 resulted in a statistically significant decrease in PLB phosphorylation in cells exposed to ISO” in each case.

Turning to YKKALHRQEAVDALYKKALHRQEAVDALYKKALHRQEAVDAL [AIPx3 multimer], the EC50 (inhibition of CaMKIIδ activity, ADP-GLO bioluminescent ADP monitoring assay) with CaMKIIδ, Q13557 came to 543 nM.
